Experimental data as given in US20200055939A1 (Genentech, published 2020).

T1: N289A
T1 construct: % monomer 89.74; also called MICA*008.mIgG2a N289A
T1 chain: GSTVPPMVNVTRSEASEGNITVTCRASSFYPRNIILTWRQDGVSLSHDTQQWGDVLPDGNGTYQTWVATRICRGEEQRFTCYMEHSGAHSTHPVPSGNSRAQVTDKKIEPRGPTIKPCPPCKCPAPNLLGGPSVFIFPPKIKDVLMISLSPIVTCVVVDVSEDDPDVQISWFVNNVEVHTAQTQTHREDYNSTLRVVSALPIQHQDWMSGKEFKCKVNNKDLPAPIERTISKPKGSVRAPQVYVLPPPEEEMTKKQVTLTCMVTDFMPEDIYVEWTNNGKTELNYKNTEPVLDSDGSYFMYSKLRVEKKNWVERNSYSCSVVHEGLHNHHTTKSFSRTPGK

T2: S291A
T2 construct: % monomer 83.21; also called MICA*008.mIgG2a S291A
T2 chain: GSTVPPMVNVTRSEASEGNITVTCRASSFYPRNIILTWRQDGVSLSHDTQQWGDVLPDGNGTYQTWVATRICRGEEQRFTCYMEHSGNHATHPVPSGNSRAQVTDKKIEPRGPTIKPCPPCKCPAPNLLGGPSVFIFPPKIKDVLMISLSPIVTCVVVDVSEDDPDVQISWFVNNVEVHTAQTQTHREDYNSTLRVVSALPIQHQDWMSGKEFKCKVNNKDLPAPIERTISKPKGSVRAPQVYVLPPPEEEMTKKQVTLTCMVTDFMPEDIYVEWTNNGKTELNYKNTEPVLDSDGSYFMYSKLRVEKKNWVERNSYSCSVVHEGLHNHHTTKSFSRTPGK

T3: G275A
T3 construct: % monomer 98.9; also called MICA*008.mIgG2a G275A
T3 chain: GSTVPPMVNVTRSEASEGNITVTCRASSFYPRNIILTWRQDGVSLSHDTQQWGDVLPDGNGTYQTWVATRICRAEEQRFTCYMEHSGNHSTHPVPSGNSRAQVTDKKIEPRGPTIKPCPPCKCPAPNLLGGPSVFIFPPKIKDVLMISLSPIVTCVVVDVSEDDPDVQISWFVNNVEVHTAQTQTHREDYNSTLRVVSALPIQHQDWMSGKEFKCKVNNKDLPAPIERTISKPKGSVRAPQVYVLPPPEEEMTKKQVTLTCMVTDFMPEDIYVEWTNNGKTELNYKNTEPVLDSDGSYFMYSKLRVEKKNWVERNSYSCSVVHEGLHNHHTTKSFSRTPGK

T4: Y283A
T4 construct: % monomer 92.7; also called MICA*008.mIgG2a Y283A
T4 chain: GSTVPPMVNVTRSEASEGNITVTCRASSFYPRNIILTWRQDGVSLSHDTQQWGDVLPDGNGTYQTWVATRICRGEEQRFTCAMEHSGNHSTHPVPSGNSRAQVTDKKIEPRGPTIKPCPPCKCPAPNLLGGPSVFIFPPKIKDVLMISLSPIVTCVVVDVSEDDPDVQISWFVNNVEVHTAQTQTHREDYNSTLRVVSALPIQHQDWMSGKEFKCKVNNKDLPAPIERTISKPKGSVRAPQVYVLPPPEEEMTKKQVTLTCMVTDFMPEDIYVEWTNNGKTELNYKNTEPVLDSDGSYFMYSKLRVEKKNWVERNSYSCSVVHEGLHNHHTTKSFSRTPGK

T5: R240A
T5 construct: % monomer 93.8; also called MICA*008.mIgG2a R240A
T5 chain: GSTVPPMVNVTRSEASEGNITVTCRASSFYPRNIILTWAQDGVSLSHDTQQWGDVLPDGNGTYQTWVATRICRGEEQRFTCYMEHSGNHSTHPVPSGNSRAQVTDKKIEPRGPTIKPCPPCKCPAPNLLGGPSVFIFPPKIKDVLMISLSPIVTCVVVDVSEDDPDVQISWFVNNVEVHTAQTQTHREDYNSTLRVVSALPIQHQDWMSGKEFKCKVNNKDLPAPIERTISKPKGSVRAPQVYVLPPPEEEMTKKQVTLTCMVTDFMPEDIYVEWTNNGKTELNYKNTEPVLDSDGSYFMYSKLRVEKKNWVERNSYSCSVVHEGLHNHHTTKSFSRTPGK

T6: V244A
T6 construct: % monomer 97.6; also called MICA*008.mIgG2a V244A
T6 chain: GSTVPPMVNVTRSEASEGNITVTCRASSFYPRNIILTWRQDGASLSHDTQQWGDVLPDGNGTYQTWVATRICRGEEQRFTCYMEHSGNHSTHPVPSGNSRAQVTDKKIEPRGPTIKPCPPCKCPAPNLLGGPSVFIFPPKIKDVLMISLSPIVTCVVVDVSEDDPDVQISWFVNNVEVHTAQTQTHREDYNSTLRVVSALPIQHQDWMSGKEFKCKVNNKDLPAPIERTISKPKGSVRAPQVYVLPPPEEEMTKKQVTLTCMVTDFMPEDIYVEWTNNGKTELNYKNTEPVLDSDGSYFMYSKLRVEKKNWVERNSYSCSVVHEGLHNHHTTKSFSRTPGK


What was measured:
Test in all cases: SPR, Fab over captured MICA*008.mIgG2a Ala variant; KD relative to wild type
[1] = target: T1, N289A
[2] = target: T2, S291A
[3] = target: T3, G275A
[4] = target: T4, Y283A
[5] = target: T5, R240A
[6] = target: T6, V244A

Binder	fold-decrease in affinity [1]	fold-decrease in affinity [2]	fold-decrease in affinity [3]	fold-decrease in affinity [4]	fold-decrease in affinity [5]	fold-decrease in affinity [6]
6F8.7 Fab (Fab, V domains shown) VH: DVQLQGSGPGLVKPSQSLSLTCSVTGYSITNDYYWNWIRQFPGNKLEWMGFISFGGSNNYNPSLKNRISITRDTSKNQFFLKLSSVTTEDTATYYCARYDGRGAWFAYWAQGTLVTVSA VL: DIQMTQSPASLSASVGETVTITCRASGNIHNYLAWYQQKQGKSPQLLVYDAITLADGVPSRFSGSGSGTQYSLKINSLQPEDFGNYYCQHFWSFPLTFGAGTKVEIK	1.2	2.7	4.6	1.7	4.5	–
1D5 Fab (Fab, V domains shown, Expressed in E. coli as chimera of murine variable and human constant domains; not shown: human IgG1 CH1 constant domain; human kappa CL constant domain) VH: EIQLQQSGPELVKPGASVKVSCKASGYAFTSQNIYWVKQSHGKSLEWIGYIEPYNVVPMYNPKFKGKATLTVDKSSSSAYIHLNSLTSEDSAIYYCARSGSSNFDYWGQGTTLTVSS VL: EIILTQSPTTMAASPGEKITITCSASSSISSHYLHWYQQKSGFSPKLLIYRTSNLASGVPARFSGSGSGTSYSLTIGTMEAEDVATYYCQQGSSLPLTFGAGTKVEIK	0.2	1.1	–	–	–	–
7D4.6 Fab (Fab, V domains shown) VH: DVQLQESGPGLVKPSQSLSLTCTVTGYSITSDYAWNWIRQFPRNKLEWMGYINYSGTTNYNPSLKSRISITRDTSKNQFFLQLISVTTEDTATYYCSYYRYDGAWFPYWGQGTLVTVSA VL: DIQMTQSPASLSASVGETVTITCRASGNIHNYLAWYQQKQGKSPQLLVYNAIMLADGVPSRFSASGSGTQYSLKINSLQPEDFGSYYCQHFWSFPLTFGAGTKVEIK	3.5	2.7	–	–	–	–
2E5.2.3 Fab (Fab, V domains shown) VH: QGQMQQSGAELVKPGASVKLSCKTSGFTFSDNYISWLKQKPGQSLEWIAWIYAGTGGTSYNQKFTAKAQLTVDTSSSTAYMQFSSLTTEDSAIYYCARHDYYGTSGAWFAYWGQGTLVTVSA VL: DVLMTQTPLSLPVSLGDQASLSCRSSQNIVHINGNTYLEWYLQKPGQSPKLLIYKVSNRFSGVPDRFSGSGSGTDFTLKISRVEAEDLGVYYCFQGSHVPWTFGGGTKVEIK	1.1	1.1	1	0.2	1	1
